{
  "source": "paper PMC8463545",
  "about": "(2021)",
  "key": {"RpfG-MBP [1]": {"biological_target": "T1, RpfG-MBP (Lysobacter enzymogenes)", "T1 chain": "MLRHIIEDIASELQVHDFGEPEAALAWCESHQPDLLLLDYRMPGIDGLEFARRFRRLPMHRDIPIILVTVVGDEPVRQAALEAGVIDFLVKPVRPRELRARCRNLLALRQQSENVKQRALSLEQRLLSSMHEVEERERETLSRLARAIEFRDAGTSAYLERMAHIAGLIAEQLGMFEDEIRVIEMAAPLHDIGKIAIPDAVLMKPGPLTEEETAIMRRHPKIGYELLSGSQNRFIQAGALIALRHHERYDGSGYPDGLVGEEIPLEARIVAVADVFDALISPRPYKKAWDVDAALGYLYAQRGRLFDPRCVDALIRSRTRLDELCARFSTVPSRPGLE", "experiment": "SPR"}, "RpfG-MBP [2]": {"biological_target": "T1, RpfG-MBP", "experiment": "SPR"}},
  "data": [
    {"binder": "HtsH3C-Myc-His (domain or fragment, Phosphorylated as purified (CIAP-sensitive). Primers give (M)AKTRFL... to ...ARRGEG (C-terminus). Positions are inferred from the candidate's His-kinase domain start. Assignment of this entry to HtsH3 is inferred. The entry is probably not from strain OH11.) not shown", "values": [
      {"measurement": "koff", "setting": "RpfG-MBP [1]", "result": 0.000738, "unit": "s⁻¹"},
      {"measurement": "Ka", "setting": "RpfG-MBP [2]", "result": "5.96e+06", "unit": "M⁻¹"}
    ]},
    {"binder": "HtsH2C-HA-His (domain or fragment, Phosphorylated as purified (CIAP-sensitive). Primers give (M)AKTRFL... to ...DAADAP (C-terminus). The candidate lists no features, so the start is estimated from the paralogues' fragment lengths and may be off by a few residues. Assignment of this entry to HtsH2 is inferred. The entry is probably not from strain OH11.) not shown", "values": [
      {"measurement": "koff", "setting": "RpfG-MBP [1]", "result": 0.00129, "unit": "s⁻¹"},
      {"measurement": "Ka", "setting": "RpfG-MBP [2]", "result": "3.34e+06", "unit": "M⁻¹"}
    ]},
    {"binder": "HtsH1C-Flag-His (domain or fragment, Phosphorylated as purified (CIAP-sensitive). Limits from the expression primers: (M)AKTRFL... to ...LFEREA, just before the His-kinase domain to the C-terminus. The start codon Met and Flag/His tags are left out. Positions are inferred from the candidate's domain features. The entry is probably not from strain OH11.) not shown", "values": [
      {"measurement": "koff", "setting": "RpfG-MBP [1]", "result": 0.00118, "unit": "s⁻¹"},
      {"measurement": "Ka", "setting": "RpfG-MBP [2]", "result": "1.5e+07", "unit": "M⁻¹"}
    ]}
  ]
}
